{"source": "patent CN116406375A", "about": "(UNIV SHANGHAI TECHNOLOGY, dated 2023)", "binders": {"B1": {"name": "S-B8 (antibody, V domains shown)", "VH": "QVQLVQSGGGLIQPGGSLRLSCAASGFTVSLSHMNWVRQAPGKGLEWVSITYGDGNSDYADSVKGRFTISRDNSKNTLYLQMNSLRAEDTAVYYCAREYYYGMDVWGQGTTVTVSS", "VL": "not shown", "notes": "also called S-B8二聚体"}, "B2": {"name": "S-D4 (antibody, V domains shown)", "VH": "QVQLQESGGGVVQPGRSLRLSCEVSGFTFSDYGMHWVRQAPGKGLEWVAVIWSEGSTEYYADSVKGRFTISRDNSKDTLYLQMNSLRAEDTAVYYCARPGYPTSTDRSPAAAGARQYYYYGMDVWGQGTTVTVSS", "VL": "NFMLTQPHSVSESPGKTVTISCTRSGGSGAANYVQWYQQRPGSSPTTLIYEDSRRPPGVPDRFSGSVDTSSNSASLTISGLQTEDEADYYCQSYDSSNHVVFGGGTKLTVLG", "notes": "also called S-D4二聚体; S-D4 IgG4"}, "B3": {"name": "S-E6 (antibody, V domains shown)", "VH": "QVTLRESGPGLVKPSETLSLTCAVSGGSLSSVNYYWSWIRQHPGKGLEWIGYIYYSGSTNYNPSLKSRVTMSLDTSKNQFSLKLSSVTAADTAVYYCATPGAIMGALHIWGQGTLVTVSS", "VL": "QAVLTQPSSASSTPGQRVIISCSGSSSNIGSNTVSWYQQVPGAAPKLLIYFDYRRPSGVPDRFSGTRSGTSASLGISGLQSEDEADYYCAAWDDSLSAWVFGRGTKLTVLG", "notes": "also called S-E6二聚体; 二聚体S-E6"}}, "data": [{"molecular_target": "T1, HCoV-HKU1刺突 (HCoV-HKU1, UniProt Q5MQD0 13-1356)", "T1 construct": "whole, on cells", "T1 sequence": "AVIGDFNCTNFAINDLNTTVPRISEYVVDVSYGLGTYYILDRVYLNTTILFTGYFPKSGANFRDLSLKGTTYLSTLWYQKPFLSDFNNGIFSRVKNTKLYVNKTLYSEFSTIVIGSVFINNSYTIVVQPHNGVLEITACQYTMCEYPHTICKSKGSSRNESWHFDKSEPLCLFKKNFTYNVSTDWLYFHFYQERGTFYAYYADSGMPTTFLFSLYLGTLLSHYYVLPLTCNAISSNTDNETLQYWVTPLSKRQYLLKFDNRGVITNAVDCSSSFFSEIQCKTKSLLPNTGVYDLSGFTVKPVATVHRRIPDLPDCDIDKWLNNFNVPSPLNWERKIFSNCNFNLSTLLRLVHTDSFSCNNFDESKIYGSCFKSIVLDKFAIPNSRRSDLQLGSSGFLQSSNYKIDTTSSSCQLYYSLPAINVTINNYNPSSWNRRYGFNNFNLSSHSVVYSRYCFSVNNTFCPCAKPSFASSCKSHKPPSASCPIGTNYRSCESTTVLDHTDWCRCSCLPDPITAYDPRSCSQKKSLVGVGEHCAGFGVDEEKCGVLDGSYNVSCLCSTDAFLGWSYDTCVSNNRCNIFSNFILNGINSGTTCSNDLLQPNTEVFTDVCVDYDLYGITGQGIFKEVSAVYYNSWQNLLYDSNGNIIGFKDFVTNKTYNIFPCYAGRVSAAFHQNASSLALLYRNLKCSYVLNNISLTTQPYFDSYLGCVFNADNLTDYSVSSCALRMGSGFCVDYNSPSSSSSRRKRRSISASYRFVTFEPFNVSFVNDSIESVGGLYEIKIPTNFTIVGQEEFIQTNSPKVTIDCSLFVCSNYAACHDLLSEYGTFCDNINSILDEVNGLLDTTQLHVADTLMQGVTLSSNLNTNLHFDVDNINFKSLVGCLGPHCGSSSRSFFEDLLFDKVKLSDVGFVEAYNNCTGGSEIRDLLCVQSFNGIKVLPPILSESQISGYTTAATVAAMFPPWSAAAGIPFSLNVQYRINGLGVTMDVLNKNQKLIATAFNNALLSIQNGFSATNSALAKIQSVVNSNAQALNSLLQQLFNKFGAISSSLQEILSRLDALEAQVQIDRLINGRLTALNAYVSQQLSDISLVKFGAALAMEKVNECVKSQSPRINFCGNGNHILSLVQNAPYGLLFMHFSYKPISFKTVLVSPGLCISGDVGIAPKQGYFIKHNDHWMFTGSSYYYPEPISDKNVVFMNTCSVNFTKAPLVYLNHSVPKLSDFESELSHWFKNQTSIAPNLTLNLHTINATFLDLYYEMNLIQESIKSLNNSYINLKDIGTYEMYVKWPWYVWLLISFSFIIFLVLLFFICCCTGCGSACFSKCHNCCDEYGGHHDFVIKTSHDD", "test": "FACS on transfected HEK293T cells", "values": [{"binder": "B1", "binding result": "no binding"}, {"binder": "B2", "binding result": "no binding"}, {"binder": "B3", "binding result": "no binding"}]}, {"molecular_target": "T2, HCoV-229E刺突 (HCoV-229E, UniProt P15423 16-1173)", "T2 construct": "whole, on cells", "T2 sequence": "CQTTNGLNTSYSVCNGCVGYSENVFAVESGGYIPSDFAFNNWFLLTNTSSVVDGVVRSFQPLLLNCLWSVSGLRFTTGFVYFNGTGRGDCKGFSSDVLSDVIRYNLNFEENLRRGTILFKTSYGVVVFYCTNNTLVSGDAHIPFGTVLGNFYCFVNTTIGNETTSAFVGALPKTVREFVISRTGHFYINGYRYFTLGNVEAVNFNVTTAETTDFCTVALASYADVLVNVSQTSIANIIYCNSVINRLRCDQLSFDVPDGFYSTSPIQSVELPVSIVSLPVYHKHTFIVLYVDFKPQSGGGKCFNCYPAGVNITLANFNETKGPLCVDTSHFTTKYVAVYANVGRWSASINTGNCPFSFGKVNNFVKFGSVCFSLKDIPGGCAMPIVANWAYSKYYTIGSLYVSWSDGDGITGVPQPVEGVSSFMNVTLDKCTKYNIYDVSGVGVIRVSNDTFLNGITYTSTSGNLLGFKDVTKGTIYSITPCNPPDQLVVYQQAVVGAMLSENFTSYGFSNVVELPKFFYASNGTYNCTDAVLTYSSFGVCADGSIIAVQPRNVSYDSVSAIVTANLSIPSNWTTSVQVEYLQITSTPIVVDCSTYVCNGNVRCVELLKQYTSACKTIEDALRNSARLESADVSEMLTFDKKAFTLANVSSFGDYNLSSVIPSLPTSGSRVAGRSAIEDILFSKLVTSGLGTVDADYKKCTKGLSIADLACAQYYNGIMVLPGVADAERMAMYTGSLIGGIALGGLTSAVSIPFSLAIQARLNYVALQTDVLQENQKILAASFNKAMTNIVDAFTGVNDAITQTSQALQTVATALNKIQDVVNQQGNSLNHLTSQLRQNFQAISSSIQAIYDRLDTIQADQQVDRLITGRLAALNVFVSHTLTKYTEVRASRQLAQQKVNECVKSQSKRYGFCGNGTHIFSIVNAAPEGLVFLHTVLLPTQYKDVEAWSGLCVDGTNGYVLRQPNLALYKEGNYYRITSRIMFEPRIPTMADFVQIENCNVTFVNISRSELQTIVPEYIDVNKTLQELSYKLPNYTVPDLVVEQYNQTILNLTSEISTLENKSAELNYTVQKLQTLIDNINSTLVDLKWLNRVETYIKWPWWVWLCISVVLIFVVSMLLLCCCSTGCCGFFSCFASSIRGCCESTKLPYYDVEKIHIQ", "test": "FACS on transfected HEK293T cells", "values": [{"binder": "B1", "binding result": "no binding"}, {"binder": "B2", "binding result": "no binding"}, {"binder": "B3", "binding result": "no binding"}]}, {"molecular_target": "T3, HCoV-OC43刺突 (HCoV-OC43, UniProt P36334 14-1353)", "T3 construct": "whole, on cells", "T3 sequence": "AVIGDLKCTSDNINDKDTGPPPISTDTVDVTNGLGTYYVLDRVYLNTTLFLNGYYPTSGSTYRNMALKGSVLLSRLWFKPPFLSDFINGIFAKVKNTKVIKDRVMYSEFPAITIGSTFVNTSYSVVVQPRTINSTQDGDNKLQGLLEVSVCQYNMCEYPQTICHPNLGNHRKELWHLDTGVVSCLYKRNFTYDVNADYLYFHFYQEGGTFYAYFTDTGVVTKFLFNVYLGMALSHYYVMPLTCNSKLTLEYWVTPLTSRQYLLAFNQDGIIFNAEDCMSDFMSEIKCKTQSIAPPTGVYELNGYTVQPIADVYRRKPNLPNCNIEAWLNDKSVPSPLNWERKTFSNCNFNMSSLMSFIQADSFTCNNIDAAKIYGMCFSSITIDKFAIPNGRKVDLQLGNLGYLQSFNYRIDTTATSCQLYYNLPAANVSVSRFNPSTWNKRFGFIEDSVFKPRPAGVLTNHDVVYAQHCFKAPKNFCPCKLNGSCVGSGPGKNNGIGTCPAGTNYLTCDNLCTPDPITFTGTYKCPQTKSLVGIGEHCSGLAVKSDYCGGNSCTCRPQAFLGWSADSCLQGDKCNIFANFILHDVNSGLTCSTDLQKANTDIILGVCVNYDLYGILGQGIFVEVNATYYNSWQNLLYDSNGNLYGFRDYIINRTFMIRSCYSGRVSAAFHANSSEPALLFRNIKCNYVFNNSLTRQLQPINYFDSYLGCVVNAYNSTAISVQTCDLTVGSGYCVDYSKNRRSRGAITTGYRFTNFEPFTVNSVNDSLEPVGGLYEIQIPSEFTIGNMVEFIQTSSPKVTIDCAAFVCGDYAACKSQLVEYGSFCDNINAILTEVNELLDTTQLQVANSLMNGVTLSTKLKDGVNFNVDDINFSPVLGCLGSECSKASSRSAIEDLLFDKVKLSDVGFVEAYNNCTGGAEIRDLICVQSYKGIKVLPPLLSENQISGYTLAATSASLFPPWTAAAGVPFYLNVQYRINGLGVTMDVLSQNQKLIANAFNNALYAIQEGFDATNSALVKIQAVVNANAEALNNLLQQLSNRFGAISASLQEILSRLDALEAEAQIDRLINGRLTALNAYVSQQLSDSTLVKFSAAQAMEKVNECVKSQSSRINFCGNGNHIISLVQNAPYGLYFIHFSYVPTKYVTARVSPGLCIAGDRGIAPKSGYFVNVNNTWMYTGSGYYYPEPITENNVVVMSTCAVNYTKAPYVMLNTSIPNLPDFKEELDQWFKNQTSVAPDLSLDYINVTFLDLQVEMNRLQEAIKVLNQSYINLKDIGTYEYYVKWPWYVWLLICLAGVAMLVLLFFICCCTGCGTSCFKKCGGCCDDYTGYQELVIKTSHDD", "test": "FACS on transfected HEK293T cells", "values": [{"binder": "B1", "binding result": "no binding"}, {"binder": "B2", "binding result": "no binding"}, {"binder": "B3", "binding result": "no binding"}]}, {"molecular_target": "T4, HCoV-NL63刺突 (HCoV-NL63, UniProt Q6Q1S2 19-1356)", "T4 construct": "whole, on cells", "T4 sequence": "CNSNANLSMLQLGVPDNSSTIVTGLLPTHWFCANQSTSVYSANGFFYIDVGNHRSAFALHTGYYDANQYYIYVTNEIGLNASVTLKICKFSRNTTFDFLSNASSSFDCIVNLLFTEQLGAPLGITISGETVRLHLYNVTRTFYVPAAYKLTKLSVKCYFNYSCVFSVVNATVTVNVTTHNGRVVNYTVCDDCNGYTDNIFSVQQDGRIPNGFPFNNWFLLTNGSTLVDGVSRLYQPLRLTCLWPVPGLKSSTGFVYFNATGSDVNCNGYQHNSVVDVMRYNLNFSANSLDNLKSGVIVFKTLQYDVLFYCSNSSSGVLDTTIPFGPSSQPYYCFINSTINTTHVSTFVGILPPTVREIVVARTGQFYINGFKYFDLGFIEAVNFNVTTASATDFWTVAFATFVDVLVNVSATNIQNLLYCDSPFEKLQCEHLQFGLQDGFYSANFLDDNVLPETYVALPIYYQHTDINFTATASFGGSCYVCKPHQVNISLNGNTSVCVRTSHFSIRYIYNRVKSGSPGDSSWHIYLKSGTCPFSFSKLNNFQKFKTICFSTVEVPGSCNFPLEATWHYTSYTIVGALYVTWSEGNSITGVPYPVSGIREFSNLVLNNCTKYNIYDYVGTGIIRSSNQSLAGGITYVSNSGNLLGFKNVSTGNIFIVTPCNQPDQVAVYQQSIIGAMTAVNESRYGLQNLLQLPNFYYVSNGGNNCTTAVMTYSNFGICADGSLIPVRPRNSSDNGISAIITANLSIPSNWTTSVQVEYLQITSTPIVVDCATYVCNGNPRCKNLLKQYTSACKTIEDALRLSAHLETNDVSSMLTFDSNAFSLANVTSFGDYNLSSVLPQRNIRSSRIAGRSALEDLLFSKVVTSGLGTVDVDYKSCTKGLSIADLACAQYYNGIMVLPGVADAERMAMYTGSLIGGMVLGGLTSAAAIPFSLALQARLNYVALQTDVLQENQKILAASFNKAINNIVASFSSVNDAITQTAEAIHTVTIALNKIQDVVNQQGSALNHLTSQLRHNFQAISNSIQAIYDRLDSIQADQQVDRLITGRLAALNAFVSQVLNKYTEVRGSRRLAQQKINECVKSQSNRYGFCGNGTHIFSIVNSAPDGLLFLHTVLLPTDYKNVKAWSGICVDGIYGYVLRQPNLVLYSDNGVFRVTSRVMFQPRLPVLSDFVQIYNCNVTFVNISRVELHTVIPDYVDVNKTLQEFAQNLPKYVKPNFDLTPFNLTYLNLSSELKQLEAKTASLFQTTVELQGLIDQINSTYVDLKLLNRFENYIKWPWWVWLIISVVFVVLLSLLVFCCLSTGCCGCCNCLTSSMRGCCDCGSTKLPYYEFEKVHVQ", "test": "FACS on transfected HEK293T cells", "values": [{"binder": "B1", "binding result": "no binding"}, {"binder": "B2", "binding result": "no binding"}, {"binder": "B3", "binding result": "no binding"}]}, {"molecular_target": "真SARS-CoV-2病毒 Victoria/01/2020 的刺突 (SARS-CoV-2)", "test": "cell-based or functional assay", "units": {"NT50, 真病毒中和 (Victoria/01/2020)": "nM"}, "values": [{"binder": "B1", "NT50, 真病毒中和 (Victoria/01/2020)": 0.88}, {"binder": "B2", "NT50, 真病毒中和 (Victoria/01/2020)": 2.04}, {"binder": "B3", "NT50, 真病毒中和 (Victoria/01/2020)": 0.15}]}]}
